{"source": "patent US20240218024A1", "about": "“METHODS AND COMPOSITIONS FOR TREATMENT OF VIRAL INFECTION” (TECHNION RESEARCH & DEVELOPMENT FOUNDATION LIMITED, priority 2021, published 2024)", "molecules": {"B1": {"name": "PCP-4×/QCP-5×: class II slncRNA, four native PCP binding sites and five native QB coat protein hairpins (SEQ ID NO: 29) (nucleic acid)", "chain": "GAGAAACCTAGGCGATTATGACGTTATTCTACTTTGATTGTGATGCATGTCTAAGACAGCATCGCCTGCTGGTCGTGACTAAGGAGTTTATATGGAAACCCTTACGAGACAATGCTACCTTACCGGTCGGGCCCACTTGTTTTTACCCATGATGCATGTCTAAGACAGCATCGCCTGCTGGTCGTGACTAAGGAGTTTATATGGAAACCCTTAGAAACAGCCGTCGCCTTGAAGCCGAGAACAATGCATGTCTAAGACAGCATATGGATTGCCTGTCTGTTAAGGAGTTTATATGGAAACCCTTACATCAGGCTTCGCAGTATGCAACGCTTGCGATGCATGTCTAAGACAGCATTTCACCGCTTTCCTAAGTAAGGAGTTTATATGGAAACCCTTAGTACTAACTCGCAGATGCATGTCTAAGACAGCATCAGAAACGTCACGTCCTGGCTGTCGA"}}, "tested_on": "BL21-DE3 E. coli cells", "assay": "slncRNA and tdPCP-mCherry expression in bacteria (puncta, burst analysis, flow cytometry)", "type": "cell-based", "details": "slncRNA co-expressed with tdPCP-mCherry, overnight induction"}
{"molecule": "B1", "values": [{"measurement": "puncta formation in cells", "result": "formation of bright puncta at the cell poles"}]}
